In patent US20210032299A1 (Eli Lilly, published 2021):
Starred links: 1 amine or outer side, 2 acyl side, 3 side chain; linkers in the order of their positions; H or OH if unused. Non-standard residues stand in square brackets, D forms with d. Groups on a side chain read outwards from the residue. No end group written: not given here. *: point of attachment. C20 diacid = O=C(O)CCCCCCCCCCCCCCCCCCC(=O)*; C18 diacid = O=C(O)CCCCCCCCCCCCCCCCC(=O)*; γGlu = O=C(O)[C@H](CCC(=O)[*:2])N[*:1]; αMeF = C[C@](N)(Cc1ccccc1)C(=O)O; 4Pal = N[C@@H](Cc1ccncc1)C(=O)O; αMeL = CC(C)C[C@](C)(N)C(=O)O; AEEA = NCCOCCOCC(=O)O; Aib = CC(C)(N)C(=O)O

T1: human glucose-dependent insulinotropic peptide receptor (human, UniProt P48546 22-466)
T1 sequence (looked up): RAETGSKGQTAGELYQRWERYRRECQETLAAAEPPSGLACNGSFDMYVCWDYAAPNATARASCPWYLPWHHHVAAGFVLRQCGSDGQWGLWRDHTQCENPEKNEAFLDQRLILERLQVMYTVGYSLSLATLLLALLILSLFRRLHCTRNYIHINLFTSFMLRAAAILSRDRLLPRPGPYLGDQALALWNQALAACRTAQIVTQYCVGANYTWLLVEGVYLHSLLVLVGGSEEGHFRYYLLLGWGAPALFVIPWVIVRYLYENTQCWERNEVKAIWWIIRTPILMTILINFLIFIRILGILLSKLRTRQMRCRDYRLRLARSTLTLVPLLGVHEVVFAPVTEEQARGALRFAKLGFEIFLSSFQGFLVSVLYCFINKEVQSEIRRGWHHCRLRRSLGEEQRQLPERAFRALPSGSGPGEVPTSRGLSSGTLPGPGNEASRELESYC


Key:
Assay in all cases: cell-based or functional assay
human GLP-1 receptor = human GLP-1 receptor (human, UniProt P43220 24-463)
human glucagon receptor = human glucagon receptor (human, UniProt P47871 26-477)
[1] = molecular target: T1, human glucose-dependent insulinotropic …

Chain of human glucagon receptor (P47871 26-477): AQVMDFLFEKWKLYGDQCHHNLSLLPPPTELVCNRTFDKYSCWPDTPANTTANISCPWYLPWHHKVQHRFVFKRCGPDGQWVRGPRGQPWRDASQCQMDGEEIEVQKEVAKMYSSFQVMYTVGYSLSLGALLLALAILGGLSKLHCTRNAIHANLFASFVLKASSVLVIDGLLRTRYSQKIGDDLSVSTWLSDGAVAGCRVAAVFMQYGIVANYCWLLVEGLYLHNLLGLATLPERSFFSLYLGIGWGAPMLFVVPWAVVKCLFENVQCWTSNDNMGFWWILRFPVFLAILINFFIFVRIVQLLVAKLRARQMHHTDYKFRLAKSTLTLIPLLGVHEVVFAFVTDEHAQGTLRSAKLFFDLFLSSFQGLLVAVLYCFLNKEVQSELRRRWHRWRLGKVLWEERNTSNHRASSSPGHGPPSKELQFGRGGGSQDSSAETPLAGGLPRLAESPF

Row | Binder | hGLP1R cAMP Rel EC50 (human GLP-1 receptor) | hGcgR cAMP Rel EC50 (human glucagon receptor) | hGIPR cAMP Rel EC50 [1]
1 | Y[Aib]EGTFISDYSI[αMeL]LDKK([AEEA-AEEA-γGlu-C20 diacid])HQ[Aib]DFVE[4Pal]LLEGGPSSGAPPPS-NH2 (N-terminus assumed; SMILES CC[C@H](C)[C@H](NC(=O)[C@H](Cc1ccccc1)NC(=O)[C@@H](NC(=O)CNC(=O)[C@H](CCC(=O)O)NC(=O)C(C)(C)NC(=O)[C@@H](N)Cc1ccc(O)cc1)[C@@H](C)O)C(=O)N[C@@H](CO)C(=O)N[C@@H](CC(=O)O)C(=O)N[C@@H](Cc1ccc(O)cc1)C(=O)N[C@@H](CO)C(=O)N[C@H](C(=O)N[C@@](C)(CC(C)C)C(=O)N[C@@H](CC(C)C)C(=O)N[C@@H](CC(=O)O)C(=O)N[C@@H](CCCCN)C(=O)N[C@@H](CCCCNC(=O)COCCOCCNC(=O)COCCOCCNC(=O)CC[C@H](NC(=O)CCCCCCCCCCCCCCCCCCC(=O)O)C(=O)O)C(=O)N[C@@H](Cc1c[nH]cn1)C(=O)N[C@@H](CCC(N)=O)C(=O)NC(C)(C)C(=O)N[C@@H](CC(=O)O)C(=O)N[C@@H](Cc1ccccc1)C(=O)N[C@H](C(=O)N[C@@H](CCC(=O)O)C(=O)N[C@@H](Cc1ccncc1)C(=O)N[C@@H](CC(C)C)C(=O)N[C@@H](CC(C)C)C(=O)N[C@@H](CCC(=O)O)C(=O)NCC(=O)NCC(=O)N1CCC[C@H]1C(=O)N[C@@H](CO)C(=O)N[C@@H](CO)C(=O)NCC(=O)N[C@@H](C)C(=O)N1CCC[C@H]1C(=O)N1CCC[C@H]1C(=O)N1CCC[C@H]1C(=O)N[C@@H](CO)C(N)=O)C(C)C)[C@@H](C)CC) [Example 47] | > 5000 nM | 757 nM | 0.0234 nM
2 | Y[Aib]EGTFISDYSI[αMeL]LDKK([AEEA-AEEA-γGlu-C20 diacid])HQ[Aib]DFVE[4Pal]LLEQGPSSGAPPPS-NH2 (N-terminus assumed; SMILES CC[C@H](C)[C@H](NC(=O)[C@H](Cc1ccccc1)NC(=O)[C@@H](NC(=O)CNC(=O)[C@H](CCC(=O)O)NC(=O)C(C)(C)NC(=O)[C@@H](N)Cc1ccc(O)cc1)[C@@H](C)O)C(=O)N[C@@H](CO)C(=O)N[C@@H](CC(=O)O)C(=O)N[C@@H](Cc1ccc(O)cc1)C(=O)N[C@@H](CO)C(=O)N[C@H](C(=O)N[C@@](C)(CC(C)C)C(=O)N[C@@H](CC(C)C)C(=O)N[C@@H](CC(=O)O)C(=O)N[C@@H](CCCCN)C(=O)N[C@@H](CCCCNC(=O)COCCOCCNC(=O)COCCOCCNC(=O)CC[C@H](NC(=O)CCCCCCCCCCCCCCCCCCC(=O)O)C(=O)O)C(=O)N[C@@H](Cc1c[nH]cn1)C(=O)N[C@@H](CCC(N)=O)C(=O)NC(C)(C)C(=O)N[C@@H](CC(=O)O)C(=O)N[C@@H](Cc1ccccc1)C(=O)N[C@H](C(=O)N[C@@H](CCC(=O)O)C(=O)N[C@@H](Cc1ccncc1)C(=O)N[C@@H](CC(C)C)C(=O)N[C@@H](CC(C)C)C(=O)N[C@@H](CCC(=O)O)C(=O)N[C@@H](CCC(N)=O)C(=O)NCC(=O)N1CCC[C@H]1C(=O)N[C@@H](CO)C(=O)N[C@@H](CO)C(=O)NCC(=O)N[C@@H](C)C(=O)N1CCC[C@H]1C(=O)N1CCC[C@H]1C(=O)N1CCC[C@H]1C(=O)N[C@@H](CO)C(N)=O)C(C)C)[C@@H](C)CC) [Example 46] | > 5000 nM | 863 nM | 0.0294 nM
3 | Y[Aib]EGT[αMeF]ISDYSIALDKK([AEEA-AEEA-γGlu-C20 diacid])HQ[Aib]DFVE[4Pal]LLEGGPSSGAPPPS-NH2 (N-terminus assumed; SMILES CC[C@H](C)[C@H](NC(=O)[C@H](CO)NC(=O)[C@H](Cc1ccc(O)cc1)NC(=O)[C@H](CC(=O)O)NC(=O)[C@H](CO)NC(=O)[C@@H](NC(=O)[C@](C)(Cc1ccccc1)NC(=O)[C@@H](NC(=O)CNC(=O)[C@H](CCC(=O)O)NC(=O)C(C)(C)NC(=O)[C@@H](N)Cc1ccc(O)cc1)[C@@H](C)O)[C@@H](C)CC)C(=O)N[C@@H](C)C(=O)N[C@@H](CC(C)C)C(=O)N[C@@H](CC(=O)O)C(=O)N[C@@H](CCCCN)C(=O)N[C@@H](CCCCNC(=O)COCCOCCNC(=O)COCCOCCNC(=O)CC[C@H](NC(=O)CCCCCCCCCCCCCCCCCCC(=O)O)C(=O)O)C(=O)N[C@@H](Cc1c[nH]cn1)C(=O)N[C@@H](CCC(N)=O)C(=O)NC(C)(C)C(=O)N[C@@H](CC(=O)O)C(=O)N[C@@H](Cc1ccccc1)C(=O)N[C@H](C(=O)N[C@@H](CCC(=O)O)C(=O)N[C@@H](Cc1ccncc1)C(=O)N[C@@H](CC(C)C)C(=O)N[C@@H](CC(C)C)C(=O)N[C@@H](CCC(=O)O)C(=O)NCC(=O)NCC(=O)N1CCC[C@H]1C(=O)N[C@@H](CO)C(=O)N[C@@H](CO)C(=O)NCC(=O)N[C@@H](C)C(=O)N1CCC[C@H]1C(=O)N1CCC[C@H]1C(=O)N1CCC[C@H]1C(=O)N[C@@H](CO)C(N)=O)C(C)C) [Example 44] | 1180 nM | > 5000 nM | 0.0084 nM
4 | Y[Aib]EGTFISDYSI[αMeL]LDKK([AEEA-AEEA-γGlu-C18 diacid])HQ[Aib]DFVE[4Pal]LLAGGPSSGAPPPS-NH2 (N-terminus assumed; SMILES CC[C@H](C)[C@H](NC(=O)[C@H](Cc1ccccc1)NC(=O)[C@@H](NC(=O)CNC(=O)[C@H](CCC(=O)O)NC(=O)C(C)(C)NC(=O)[C@@H](N)Cc1ccc(O)cc1)[C@@H](C)O)C(=O)N[C@@H](CO)C(=O)N[C@@H](CC(=O)O)C(=O)N[C@@H](Cc1ccc(O)cc1)C(=O)N[C@@H](CO)C(=O)N[C@H](C(=O)N[C@@](C)(CC(C)C)C(=O)N[C@@H](CC(C)C)C(=O)N[C@@H](CC(=O)O)C(=O)N[C@@H](CCCCN)C(=O)N[C@@H](CCCCNC(=O)COCCOCCNC(=O)COCCOCCNC(=O)CC[C@H](NC(=O)CCCCCCCCCCCCCCCCC(=O)O)C(=O)O)C(=O)N[C@@H](Cc1c[nH]cn1)C(=O)N[C@@H](CCC(N)=O)C(=O)NC(C)(C)C(=O)N[C@@H](CC(=O)O)C(=O)N[C@@H](Cc1ccccc1)C(=O)N[C@H](C(=O)N[C@@H](CCC(=O)O)C(=O)N[C@@H](Cc1ccncc1)C(=O)N[C@@H](CC(C)C)C(=O)N[C@@H](CC(C)C)C(=O)N[C@@H](C)C(=O)NCC(=O)NCC(=O)N1CCC[C@H]1C(=O)N[C@@H](CO)C(=O)N[C@@H](CO)C(=O)NCC(=O)N[C@@H](C)C(=O)N1CCC[C@H]1C(=O)N1CCC[C@H]1C(=O)N1CCC[C@H]1C(=O)N[C@@H](CO)C(N)=O)C(C)C)[C@@H](C)CC) [Example 49] | > 5000 nM | 2860 nM | 0.0156 nM
5 | Y[Aib]EGTFISDYSI[αMeL]LDKK([AEEA-AEEA-γGlu-C20 diacid])HQ[Aib]DFVE[4Pal]LLETGPSSGAPPPS-NH2 (N-terminus assumed; SMILES CC[C@H](C)[C@H](NC(=O)[C@H](Cc1ccccc1)NC(=O)[C@@H](NC(=O)CNC(=O)[C@H](CCC(=O)O)NC(=O)C(C)(C)NC(=O)[C@@H](N)Cc1ccc(O)cc1)[C@@H](C)O)C(=O)N[C@@H](CO)C(=O)N[C@@H](CC(=O)O)C(=O)N[C@@H](Cc1ccc(O)cc1)C(=O)N[C@@H](CO)C(=O)N[C@H](C(=O)N[C@@](C)(CC(C)C)C(=O)N[C@@H](CC(C)C)C(=O)N[C@@H](CC(=O)O)C(=O)N[C@@H](CCCCN)C(=O)N[C@@H](CCCCNC(=O)COCCOCCNC(=O)COCCOCCNC(=O)CC[C@H](NC(=O)CCCCCCCCCCCCCCCCCCC(=O)O)C(=O)O)C(=O)N[C@@H](Cc1c[nH]cn1)C(=O)N[C@@H](CCC(N)=O)C(=O)NC(C)(C)C(=O)N[C@@H](CC(=O)O)C(=O)N[C@@H](Cc1ccccc1)C(=O)N[C@H](C(=O)N[C@@H](CCC(=O)O)C(=O)N[C@@H](Cc1ccncc1)C(=O)N[C@@H](CC(C)C)C(=O)N[C@@H](CC(C)C)C(=O)N[C@@H](CCC(=O)O)C(=O)N[C@H](C(=O)NCC(=O)N1CCC[C@H]1C(=O)N[C@@H](CO)C(=O)N[C@@H](CO)C(=O)NCC(=O)N[C@@H](C)C(=O)N1CCC[C@H]1C(=O)N1CCC[C@H]1C(=O)N1CCC[C@H]1C(=O)N[C@@H](CO)C(N)=O)[C@@H](C)O)C(C)C)[C@@H](C)CC) [Example 45] | > 5000 nM | 1690 nM | 0.049 nM
6 | Y[Aib]EGTFISDYSI[αMeL]LDKK([AEEA-AEEA-γGlu-C20 diacid])HQ[Aib]DFVE[4Pal]LLAGGPSSGAPPPS-NH2 (N-terminus assumed; SMILES CC[C@H](C)[C@H](NC(=O)[C@H](Cc1ccccc1)NC(=O)[C@@H](NC(=O)CNC(=O)[C@H](CCC(=O)O)NC(=O)C(C)(C)NC(=O)[C@@H](N)Cc1ccc(O)cc1)[C@@H](C)O)C(=O)N[C@@H](CO)C(=O)N[C@@H](CC(=O)O)C(=O)N[C@@H](Cc1ccc(O)cc1)C(=O)N[C@@H](CO)C(=O)N[C@H](C(=O)N[C@@](C)(CC(C)C)C(=O)N[C@@H](CC(C)C)C(=O)N[C@@H](CC(=O)O)C(=O)N[C@@H](CCCCN)C(=O)N[C@@H](CCCCNC(=O)COCCOCCNC(=O)COCCOCCNC(=O)CC[C@H](NC(=O)CCCCCCCCCCCCCCCCCCC(=O)O)C(=O)O)C(=O)N[C@@H](Cc1c[nH]cn1)C(=O)N[C@@H](CCC(N)=O)C(=O)NC(C)(C)C(=O)N[C@@H](CC(=O)O)C(=O)N[C@@H](Cc1ccccc1)C(=O)N[C@H](C(=O)N[C@@H](CCC(=O)O)C(=O)N[C@@H](Cc1ccncc1)C(=O)N[C@@H](CC(C)C)C(=O)N[C@@H](CC(C)C)C(=O)N[C@@H](C)C(=O)NCC(=O)NCC(=O)N1CCC[C@H]1C(=O)N[C@@H](CO)C(=O)N[C@@H](CO)C(=O)NCC(=O)N[C@@H](C)C(=O)N1CCC[C@H]1C(=O)N1CCC[C@H]1C(=O)N1CCC[C@H]1C(=O)N[C@@H](CO)C(N)=O)C(C)C)[C@@H](C)CC) [Example 48] | > 5000 nM | 1360 nM | 0.0166 nM
